Source: the supplement of paper PMC9170038

System: MS2 coat protein
Assay: apparent KD of MS2 coat protein; designed switch direction (-1 OFF switch, 1 ON switch): -1; higher = weaker reporter binding
Details: Eterna round: R98
Description: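 RNA-MaP: designed FMN/MS2 RNA switches (84 nt design region) are transcribed on-chip within common flanks and titrated with SNAP-549-labelled MS2 coat protein (about 1-3000 nM) in 100 mM Tris pH 7.5, 80 mM KCl, 4 mM MgCl2, without or with 200 uM FMN. Median apparent KD per design; activation ratio = KD,OFF / KD,ON.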

Sequence	apparent KD of MS2 coat protein (input ligand: FMN 200 uM) [nM]	apparent KD of MS2 coat protein (input ligand: none) [nM]
UGGUAUAAGGGCAUUACACAUGAGGAUCACCCAUGUACGUUAGAGGAUAUGCAUUCCAGUCGAACGUAGAAGGUUAGAGAAGGG [Morebubblesahh#8abcdefghij]	150	113
UUCUGUGCCCAAAGUUUAAGCACAUGAGGAUCACCCAUGUGAAAGGAUAUGUGGCAUGUAAUGUUAUAGAAGGUUCACAAUCAA [Esadi]	23.9	15.8
